Results: the DeepSol protein solubility set

Experiment: soluble on expression in E. coli; label from the status in PepcDB or PDB records

Row | Sequence | soluble on expression in E. coli
1 | MRKITSVSVGEQLDSFITRMVQSGRYGSASEVMRSALRLLEQQESRDEAVRNAVIEGLESGESSMTLRDIAAERKQKHRV | soluble
2 | MRKKLKAVLFDMDGVLFNSMPYHSEAWHQVMKTHGLDLSREEAYMHEGRTGASTINIVFQRELGKEATQEEIESIYHEKSILFNSYPEAERMPGAWELLQKVKSEGLTPMVVTGSGQLSLLERLEHNFPGMFHKELMVTAFDVKYGKPNPEPYLMALKKGGLKADEAVVIENAPLGVEAGHKAGIFTIAVNTGPLDGQVLLDAGADLLFPSMQTLCDSWDTIML | not soluble
3 | MRLILLALLALVFPAVAQEDMPAKVWLEKMSQALKEKEFKASIIQLQADHIRPLVYLHGKVNNQEVAFLEYLNGPPKNAVRVGNRVTFIEHDQPAYSILSNHIQGVWPAAFSSQMSDLEVGYQFVMGGRTRIAGRPGQMIRLLPNDEYRYGFQIWLDMDTYLPLRYDMLTQDKQLLEQLMVIELIEFSEPPSILQEAYKQEWPAVIDQAERQDGQNWQFSWLPAGFSVVVRDHHRLIGSHEAVEYIALTDGLANISIYVARAGSTPLPEELITRNGLSLVAEKVGNAEVVAVGKVPTETLARIAKSLMLK | not soluble
4 | MRLNKRLPAALSGLLLSAALLAGCSTSGTAETTTTTVSSAAASTTTSTSSASSSSSSSSSSSSSDSSTTAETISNTAEAAQAFLSTLSTEEQDAVLYDYDAEEKSTGWSNFPVTFVQRSGVNLTDLTEEQQAAALNVLKNLLNDDAYQMIEDIMASDQYLNDESNTTEDSLGQYYIAFFGDPSSDSDWSIQFGGHHIGINTTFSDGAITFAPTHLGTQPSEWTNEDGETVAALSNMYETAFAFYDSLAEEQQAQLYQGEELDSMVCAPGSTCDYPTGTGLKGSDLTDEQKELLIDVIANWVGLADEETTETELDAIRETLDDTYINWSGATEYDTSTGDGIYFQISGPKVYIEFANQQGSAGADIDGVITAGWGHIHTIYRDPTNDYANSVTQEAASGMMGGGPGGNGGEMPSGDMPTGEMPSGAPSNLEHHHHHH | not soluble
5 | MRLPHQLTGSRFFSFSDEGEFLKSVSAVVDEEEFVRIGSLVQAGLMPITSKEVLATMLGVNPGIIWSLENKPERYYRRFKIPKGKGEREIVAPKVGLKVIQKWFSVQLQDCARIDDHVFGFVPGRSHIDAASVHTNANWVYSIDLTNFFPSTPINWVASSLINIGYDADSADRISKLCCYRGALAQGSPASPVLSNISMRGIDAALGALAAEMDVRVTRYADDITFSAAGEFPQVLPERLESLFSQTPWKISQEKTYFSEAPVRLKVHGLVVNGNTVKLTKGYRNKLRAYRHVLQTNRCRQEDLARLSGHVRYASQVSSRDDLEHHHHHH | not soluble
6 | MRLPILLLSILGLSLGFGHDSPSSPAANQYATELADRFFTKFIKAVKYSDVRVMDSLLLSSNENLSSKNMIREFYKYPNTKIHDARFVGRNIATTVFFPLSPHGYDIPFKSADFILKKRFMGDWAITSMENLKYNSGKG | not soluble
7 | MRLTEEEVQALLEKADGWKLADERWIVKKYRFQDYLQGIEFVRRIAAISENANHHPFISIDYKLITVKLSSWRAKGLTKLDFDLAKQYDEVYNQMKQGEGE | soluble
8 | MRMNLTNHFLVAMPGMKDPYFQNSVIYVCEHNEEGAMGLMINAPVDITVGNMLKQVDVQPVHPRLFEASLDRPVYNGGPISEDRGFILHKPKDYYESSIQMTDDLAVTTSRDILSVLGTEAEPSDYLVALGYSGWSAGQLENELVENSWLTIEATPEIIFDTPITERWKKAVEKLGIDPSQLSADAGHALEHHHHHH | soluble
9 | MRNIAVILAGGSGQRLGENIPKQFLKIAGKKVIEHTITVFQNHSLIDEIVVVVHPDYIRDVEDISLRNSFNKLKKILLGGKERYHSSLAAINAYDEEVNLLFHDSVRPLVNERIINDCIRALLTYNAVDVAIPTTDTIIQVDDNNEIVKIPSRILLRNGQTPQAFKRSVIKAAYEKALLDPLFKTTDDCGVVLKYLPDESIYVVNGEQFNMKLTYKEDIFLLDKLFQLRSIRNQPTLLEKSEMEELQGKVVVVFGGTYGIGQDICEICREYKTSLYVYSRSTGVDVSNSQSVRRVLSEIFDKEGRIDWIVNTAGILDKQPLANMSYEAVHQSIDVNYLGNIIVAKESFFYLKESKGSLLFFTSSSYTRGRALYSLYSSSKAAIVNFVQALSEEWFEYGIRVNCINPERTKTPMRIQNFGNEPEDTLLEPKVVAIVSVNTLLSEMTGEVVDVKRLEHHHHHH | not soluble
10 | MRNSLFTTLFFGLAALVMVLNAQYTSELEEDEKRGGARAMLHKRGGARAFSADVGDDYKRGGARAFYDEKRGGARAFLTEMKRGGARVFQGFEDEKRGGARAFMMDKRGGGRAFGDMMKRGGARAFVENSKRDEDWVIRPFEDDRLEKRGGGRSFPVKPGRLDD | not soluble
11 | MRNTKIRAVQYGCGKMSKVILNYLVDHGVEIVGAIDKNPAVVGQDIGDFAGFGHKTGIIISDKADQVFDNCDADIAIVTIFSYMPEMYEFYEMAIKHGVNVISTCEEAIYPWTTSPSETNRLDKLAKENHVTIMGSGMQDIYWINMPCLAMAGMNKIKKVRGVVSYNVEDYGLALAEAHGAGYDLERFERDIASAESLPSYMWNAAEAICSKMNWTIQSINQKSVPYILDEDVYSETLGRTIPAGQVTGMSAVTKVQTHQGIDLEVECIGKVYRQDDGDMCDWEITGEPDLIFSVNKPDTVALTCGTIVNRIPTVLDAPAGYITSEKARLITYPSYPLHTYVEK | not soluble
12 | MRPQIMPFYIEMGKGDGGITGEDILQNWMLKSNLKNVEILEELPLRPTKLVVAISEEIYPDVYTIEDFKEKVGDREVFIASEFPEIARKYAEKHGLNAIVFDPIGKTEAALLPPMPEADLIIEITEFGTTLKENMCRIIDLVMDKVHSVFIVNKESLKDEEKKQVMENLVTDLKEVIESRNLVSFYFNVPNEDDLRRIIDYLTENGFDPTISPLAKGGAAVHIIVDRSRVKFLKPIIRGMGAKRIATSPVITSGTNRAAQQKPFYLLSGIQREFPSASPFF | not soluble
13 | MRPTRKCEFCGKTFVPRSGMQKYCSEECQAETKRLRKKRQQDLINGIEPIMDLQHQEYLTFSKAAILMGCTRQYIYKLVANGKLKASRLSSRMAFVRKADIEKMFEGHPYKRVVPASKSKLSKKAKAEKPTQNQEPTKGKEENDVLDYYSGEEVMSIYKVKKSWLYTSAKRNQIPMCRIAGKNYYSKRHIDEFFGTAVDLNSITEWVTADDVEEAFSMSKSALRAYTYRHKIPTKREYGRTYYSKEHLEELRRTDLMSDDSYYTTEQVQQIYGLTSANICHIVRVHHISKVKVGVKNLLLKTDVERAMAERAAKGL | not soluble
14 | MRQDDLKLLGKIVTTHGIRGQLKVASFSGEFDTILSLETVVLKGKDGRMETFPVARATVHHDRVLLSLTPFTNINEVLHLISAVSYAHRDQFPPLEEGEYYWCDLIGLQVVTAAGTVIGRLDSILPTESHDVYVVRGADREYLIPAVEDVVVQVDLEAGTMTVSPPEGLLDLLEHHHHHH | soluble
15 | MRQQTCTTVTLRQRPIRNGRISLYLDYYPAVRNPKTMKLSRREYLGFYIYATPKNAIELDYNNEILAKAELIRCRRQEAVINEEFGFMDRHKMRADFMAYFKEVCRKKDHKWHIVYLHFEKFVNGKCMFGEITVDLCNRFRDYLLHARQLKHTDKMVSRNSAASYFSLFRGVLKLAYRDKYLRENPNDFLEKIESRDIHKEFLTQDELKTLASTPCDIPVLRNASLFSCLTGLRISDILNLKWENLCTAPDLGHCIRLRTQKTQTEALLPISYEAYALCGEPGTGKVFKELRRCMTGYPLKAWIKKAGIQKHITFHCLSHSKLFYLLNISELSILKNVTANDLETSYILFLSQLCNIQRTL | not soluble
16 | MRQRKDMPHNRLQTGGMTDEPTDIKAEAKPARTSDLRGFIRLLEERGQLRRIRQPVSLVHEITEIHRRVLADGGPALLFEQPVDHEGKVRKMPLLANLFGTRQRIEWGLGLETGGLPALGQKLTELREPRPPKSMAEAWSKLPLLRAALSMRQRNVSRAPVQEKVLTRDAVDLARLPVQWCWPGEPAPLITWPLVITRSPDDPDDINVGIYRMQVLGPDRVIMRWLAHRGGAHHHRLWQARGLDMPVTVAIGADPATILAAVMPLPDHISELGFSGLLRGAKSRIAKALTVPMPVPANAEIVLEGTVSATETAMEGPYGDHTGYYNSVEAFPVMTLSAITMRRDPIYLSTYTGRPPDEPSVLGEAMLEIFLPLVKRQFAEIVDLWMPPEACSYRVMVASIDKRYPGQAKRVMMGLWSMLPQFSYVKLIILVDPDIDVRSWTDVVWALSTRFDASRDTTIINDTPIDYLDFASPKAGLGGKMGLDATRKLPPETEREWGRVLSMTPDVVAKVDLVWRDLGLGERPVDKLAAALEHHHHHH | not soluble
